Assay results: patent publication US9187525B2, “Methods of treating ophthalmic diseases using NPR-B agonists” (Shire Orphan Therapies GmbH, dated 2015)
Numbered stars: 1 amine (or outer) side, 2 acyl side, 3 side chain; on linkers, the order of the positions; unused ones are H or OH. Square brackets hold non-standard residues; d marks the D form. Ends that are not written are not given here. * marks the point of attachment. Tap(Ae) = (2S,4R)-4-(2-aminoethylamino)pyrrolidine-2-carboxylic acid, O=C([C@@H]1C[C@@H](NCCN[*:3])CN1[*:1])[*:2]; dap(6263)2 = (R)-2-amino-3-(bis(2-aminoethyl)amino)propanoic acid, NCCN(CCN[*:3])C[C@@H](N[*:1])C(=O)[*:2]; Tap(Ap) = 4-(3-amino-propylamino)-pyrrolidine-2-carboxylic acid; Pro(trans-4-NH2) = O=C([C@@H]1C[C@@H](N[*:3])CN1[*:1])[*:2]; Sni = (S)-nipecotic acid, O=C([C@H]1CCCN([*:1])C1)[*:2]; Oic = O=C(O)[C@@H]1C[C@@H]2CCCC[C@@H]2N1; dDap(Me2) = CN(C)C[C@@H](N)C(=O)O; Hyp = O=C(O)[C@@H]1C[C@@H](O)CN1; Dap(Me2) = CN(C)C[C@H](N)C(=O)O; NMeL = CN[C@@H](CC(C)C)C(=O)O; AR‑201‑62 = not defined here; AR‑201‑69 = not defined here; Tle = CC(C)(C)[C@H](N)C(=O)O; Pip = O=C(O)[C@@H]1CCCCN1; Ac6c = NC1(C(=O)O)CCCCC1; Nle = CCCC[C@H](N)C(=O)O; Octanoyl = CCCCCCCC(=O)*; dDap = NC[C@@H](N)C(=O)O; Api = NC1(C(=O)O)CCNCC1; Et2 = not defined here; Nbt = 4-butyl-thiazole; Sbt = 5-butyl-thiazole; Occ = octanoic acid

T1: natriuretic peptide receptor-B (human)
T1 chain: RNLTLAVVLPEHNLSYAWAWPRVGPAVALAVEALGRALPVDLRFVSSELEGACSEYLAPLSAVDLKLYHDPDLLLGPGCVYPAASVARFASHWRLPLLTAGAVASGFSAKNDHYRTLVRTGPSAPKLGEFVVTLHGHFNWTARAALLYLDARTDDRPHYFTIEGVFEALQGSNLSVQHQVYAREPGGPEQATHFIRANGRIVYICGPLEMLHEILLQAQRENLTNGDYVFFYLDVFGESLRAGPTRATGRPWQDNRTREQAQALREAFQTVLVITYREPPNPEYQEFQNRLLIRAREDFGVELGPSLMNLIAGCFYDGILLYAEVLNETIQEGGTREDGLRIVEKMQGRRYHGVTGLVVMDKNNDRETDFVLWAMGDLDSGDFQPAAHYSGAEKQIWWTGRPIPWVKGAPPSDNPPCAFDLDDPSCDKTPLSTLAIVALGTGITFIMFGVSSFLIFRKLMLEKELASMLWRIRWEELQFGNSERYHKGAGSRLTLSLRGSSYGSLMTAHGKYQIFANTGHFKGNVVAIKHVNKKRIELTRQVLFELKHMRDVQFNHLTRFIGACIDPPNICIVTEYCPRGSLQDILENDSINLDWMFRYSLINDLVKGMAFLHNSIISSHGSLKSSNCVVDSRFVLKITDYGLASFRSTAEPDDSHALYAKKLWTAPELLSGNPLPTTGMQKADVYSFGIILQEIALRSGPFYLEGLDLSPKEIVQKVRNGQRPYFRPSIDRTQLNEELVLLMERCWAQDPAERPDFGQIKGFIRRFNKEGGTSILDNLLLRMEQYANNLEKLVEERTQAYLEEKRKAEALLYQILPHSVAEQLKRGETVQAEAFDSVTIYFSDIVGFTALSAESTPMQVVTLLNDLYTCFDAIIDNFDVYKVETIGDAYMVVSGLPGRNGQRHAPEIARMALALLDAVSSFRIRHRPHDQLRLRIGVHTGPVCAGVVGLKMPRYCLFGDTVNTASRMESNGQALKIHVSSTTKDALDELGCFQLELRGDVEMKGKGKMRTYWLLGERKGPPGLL


Target: T1, natriuretic peptide receptor-B
Experiment: cell-based or functional assay

EC50 group, cGMP in GTM-3 cells [µM]	Binder
≤ 5	Octanoyl-[dA]F[dL][Dap(Me2)][Hyp][NMeL]DRI-NH2 [JAL-1368]
≤ 5	Octanoyl-[dA]F[dL]L[Hyp][Pip]DRI-NH2 [JAL-1366]
≤ 15	Octanoyl-[dA]F[dL]L[Hyp][NMeL]D[Nle]I-NH2 [JAL-1360]
≤ 5	Octanoyl-[dA]F[dR]L[Hyp][NMeL]DR[Ac6c]-NH2 [JAL-1359]
≤ 1	Octanoyl-[dA]F[dL]L[Hyp][NMeL]DR[Ac6c]-NH2 [JAL-1358]
≤ 1	Octanoyl-[dA]F[dL]L[Hyp][Dap(Me2)]DRI-NH2 [JAL-1367]
≤ 1	Octanoyl-[Sni]F[dL]L[Tap(Ap)][NMeL]DRI-NH2 [JAL-1372]
≤ 15	Octanoyl-[dA]F[dR]L[Hyp][NMeL]D[Nle]I-NH2 [JAL-1361]
≤ 5	[Occ][Sni]F[dap(6263)2]L[Pro(trans-4-NH2)][NMeL]DRI-NH2 [JAL-1370]
≤ 5	Octanoyl-[dA]F[dR]L[Hyp][Oic]DRI-NH2 [JAL-1364]
≤ 15	Octanoyl-[dA]F[dR]L[Hyp][NMeL]IRI-NH2 [JAL-1362]
≤ 5	Octanoyl-[dA]F[dL]L[Hyp][NMeL]IRI-NH2 [JAL-1363]
≤ 1	Octanoyl-[Sni]F[dDap(Me2)]L[Pro(trans-4-NH2)][NMeL]DRI-NH2 [JAL-1369]
≤ 15	Octanoyl-[dA]F[dR]L[Hyp][Pip]DRI-NH2 [JAL-1365]
≤ 1	Octanoyl-[Sni]F[dL]L[Tap(Ae)][NMeL]DRI-NH2 [JAL-1371]
≤ 1	Octanoyl-[dA]F[dL]L[Hyp][NMeL]DR[Tle]-NH2 [JAL-1352]

Further lines, the binder ahead of its results:

Binder	EC50 group, cGMP in GTM-3 cells [µM]
[Nbt][Sni]F[dR]L[Hyp][NMeL]DRI-NH2 [JAL-1344]	≤ 5
[AR‑201‑69]F[dR]L[Hyp][NMeL]DRI-NH2 (reading uncertain; also: printed as (AR-201-69)-Phe-arg-Leu-Hyp-Nml-Asp-Arg-Ile-NH2) [JAL-1342]	≤ 5
XXFGLKLDRI (HELM PEPTIDE1{[CCCCCC(=O)[*:2]].[O=C(c1ccc(CN[*:1])cc1)[*:2]].F.G.L.K.L.D.R.I.[am]}$$$$V2.0; SMILES CCCCCC(=O)NCc1ccc(C(=O)N[C@@H](Cc2ccccc2)C(=O)NCC(=O)N[C@@H](CC(C)C)C(=O)N[C@@H](CCCCN)C(=O)N[C@@H](CC(C)C)C(=O)N[C@@H](CC(=O)O)C(=O)N[C@@H](CCCNC(=N)N)C(=O)N[C@H](C(N)=O)[C@@H](C)CC)cc1) [JAL-0648]	≤ 15
XXFGLKLDRI (HELM PEPTIDE1{[CCCCCC(=O)[*:2]].[O=C(c1cccc(CN[*:1])c1)[*:2]].F.G.L.K.L.D.R.I.[am]}$$$$V2.0; SMILES CCCCCC(=O)NCc1cccc(C(=O)N[C@@H](Cc2ccccc2)C(=O)NCC(=O)N[C@@H](CC(C)C)C(=O)N[C@@H](CCCCN)C(=O)N[C@@H](CC(C)C)C(=O)N[C@@H](CC(=O)O)C(=O)N[C@@H](CCCNC(=N)N)C(=O)N[C@H](C(N)=O)[C@@H](C)CC)c1) [JAL-0647]	≤ 15
Nbt-[dA]F[dR]L[Hyp][NMeL]DRI-NH2 [JAL-1346]	≤ 15
XXFGLKLDRI (HELM PEPTIDE1{[CCCCCC(=O)[*:2]].[O=C(Cc1cccc(N[*:1])c1)[*:2]].F.G.L.K.L.D.R.I.[am]}$$$$V2.0; SMILES CCCCCC(=O)Nc1cccc(CC(=O)N[C@@H](Cc2ccccc2)C(=O)NCC(=O)N[C@@H](CC(C)C)C(=O)N[C@@H](CCCCN)C(=O)N[C@@H](CC(C)C)C(=O)N[C@@H](CC(=O)O)C(=O)N[C@@H](CCCNC(=N)N)C(=O)N[C@H](C(N)=O)[C@@H](C)CC)c1) [JAL-0649]	≤ 15
Octanoyl-[dA]F[Api]L[Pro(trans-4-NH2)][NMeL]DRI-NH2 [JAL-1350]	≤ 1
Octanoyl-[Sni]F[dL]L[Pro(trans-4-NH2)](Et)[NMeL]DRI-NH2 [JAL-1349]	≤ 1
[Occ][Sni]F[Api]L[Pro(trans-4-NH2)][NMeL]DRI-NH2 [JAL-1351]	≤ 1
[AR‑201‑62]F[dR]L[Hyp][NMeL]DRI-NH2 (reading uncertain; also: printed as (AR-201-62)-Phe-arg-Leu-Hyp-Nml-Asp-Arg-Ile-NH2) [JAL-1341]	≤ 5
Octanoyl-[Sni]F[dL]L[Pro(trans-4-NH2)](Et2)[NMeL]DRI-NH2 (reading uncertain; also: printed as Occ-Sni-Phe-leu-Leu-Tap(Et2)-Nml-Asp-Arg-Ile-NH2) [JAL-1348]	≤ 5
[Sbt][Sni]F[dR]L[Hyp][NMeL]DRI-NH2 [JAL-1343]	≤ 1
[Sbt][dA]F[dR]L[Hyp][NMeL]DRI-NH2 [JAL-1345]	≤ 15
Octanoyl-[dA]F[dDap](Me2)L[Pro(trans-4-NH2)][NMeL]DRI-NH2 [JAL-1347]	≤ 5
